Results on eleven sequences are retold here after paper PMC7867234.

Numbering of substitutions follows the chain as printed.

One data set concerns the target T1, OmpR-His6 (Yersinia enterocolitica Ye9) (UniProt P74982).
T1 sequence: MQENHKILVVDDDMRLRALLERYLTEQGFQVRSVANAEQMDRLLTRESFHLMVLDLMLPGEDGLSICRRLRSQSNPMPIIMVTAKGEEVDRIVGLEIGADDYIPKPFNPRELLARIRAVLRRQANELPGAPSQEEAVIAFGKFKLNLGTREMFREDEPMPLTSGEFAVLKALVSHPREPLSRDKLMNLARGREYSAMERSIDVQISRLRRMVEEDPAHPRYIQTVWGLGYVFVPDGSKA
Put plainly: EMSA. The following applies: 50 mM Tris-HCl pH 8.0, 100 mM KCl, 1 mM EDTA, 1 mM DTT, 20 mM MgCl2, 12% glycerol, 100 ug/mL BSA, 0.1% Triton X-100; 22 C, 15 min; 0.05 or 0.3 pmol DNA in …. A general note: A gel shift assay detects complexes by their altered migration in electrophoresis.
As to “CAATCTATTCACGGGGCAACAAAAACGAACAAGATTGATAATTATTTTCATTATCAATTCATCCGGCTAATTGTTACATTTGCAATCAGAAAAAAGGTTTGTGTAAACAGCAAAACTCTTTGCTATAAAGTCAATGTTGTTACTACATCAATACCAGTGAAGGAGTCATTATGCCCGCGGTGAAGAAAAATAAGTTGCGCAATATTTCCCCATCATCCAAACCGATTTATCGCGACCAAATTATGCA (double strand) [PfepA]”, the binding result is listed as “binds”.
On the same count and under the same terms, under “CCCCCTTATTCCAAATGGTTTTTATTTCTCCTTTCTGTTTTTGCAGCAAGAAATAATTCGTCTGTTTGCGACAAAATTGATTTACTTGGGAAATGTAATCATTAAGATTAGCGTTTCTAAAAAATTACAATCAGACACAATTCCTTTCGCAATAGGCCCAAAATGTTAACGTTTTCCCGTTTGTCTCTG (double strand) [PfecA]” stands “binds”; under “GGTGGTAAAACAAGCGCAAATAGAAATCAGACTCATTAATTTTAAAAATGAAATCGTAATGAATATTTACTTTTGAGTCTTTAACCTGAGTTGAATATGAAAACGATTCTTACTATTATTATTTTAATCATTATTCATTAGTGGTGGAATTTCTCTGAACTCTGGTTTGCTAATGCGTTATAACGAGAGGCTTACATGCATCTGATCCCACAGCGCTCCTACAAAAT (double strand) [PfeoA]”, “binds more weakly”.

A further data set concerns the target T2, OmpR-His6 (Yersinia enterocolitica Ye9) (UniProt P74982).
T2 sequence: T1 sequence with A136T
Put plainly: EMSA. The conditions noted are these: 50 mM Tris-HCl pH 8.0, 100 mM KCl, 1 mM EDTA, 1 mM DTT, 20 mM MgCl2, 12% glycerol, 100 ug/mL BSA, 0.1% Triton X-100; 22 C, 15 min; 0.05 or 0.3 pmol DNA in ….
Take “CAATACATTGCATGATTAATCGGGCAAAGTGTGCAATTATATCTTTGTTAACAACCACGGTTTTCATTTGGGGCTAGCAGTTCTATAATGAGACGCAATTGAGAATATTGCGCCACGGATGTCATAGGCTGAACAGCCTTAATTTGAATCGATAGTAACAGGACTGAATCCGCATG (double strand) [F4]”: the binding result was “binds more weakly”.
On the same count and under the same terms, next, “CGTTGCTTCTATCCCTCTGGTTATACTCTGTTAAGCCACCCACAGATCCGCACTTTCATCCGTGCAAAATGAAAATAAACTGCTACAAATTTGTAACCTTATACTTTGCAGTCAT (double strand) [F2]”: “binds”.
Same read-out and setting: under “CGTTGCTTCTATCCCTCTGGTTATACTCTGTTAAGCCACCCACAGATCCGCACTTTCATCCGTGCAAAATGAAAATAAACTGCTACAAATTTGTAACCTTATACTTTGCAGTCATATACTTAAATTATGCAACAATCCCATTCATCAATACATTGCATGATTAATCGGGCAAAGTGTGCAATTATATCTTTGTTAACAACCACGGTTTTCATTTGGGGCTAGCAGTTCTATAATGAGACGCAA (double strand) [F23]” stands “binds”; under “GCAGTCATATACTTAAATTATGCAACAATCCCATTCATCAATACATTGCATGATTAATCGGGCAAAGTGTGCAATTATATCTTTGTTAACAACCACGGTTTTCATTTGGGGCTAGCAGTTCTATAATGAGACGCAA (double strand) [F3]”, “binds”.
As to “GCAGTCATATACTTAAATTATGCAACAATCCCATTCATCAATACATTGCATGATTAATCGGGCAAAGTGTGCAATTATATCTTTGTTAACAACCACGGTTTTCATTTGGGGCTAGCAGTTCTATAATGAGACGCAATTGAGAATATTGCGCCACGGATGTCATAGGCTGAACAGCCTTAATTTGAATCGATAGTAACAGGACTGAATCCGCATG (double strand) [F34]”, the binding result is reported as “binds”.
“GCATGATTAATCGGGCAAAGTGTGCAATTATATCTTTGTTAACAACCACGGTTTTCATTTGGGGCTAGCAGTTCTATAATGAGACGCAATTGAGAATATTGCGCCACGGATGTCATAGGCTGAACAGCC (double strand) [F0]”: the binding result is reported as “no binding”.
Still for that read-out and setting: under “TCATTTTGCACGGATGAAAGTGCGGATCTGTGGGTGGCTTAACAGAGTATAACCAGAGGGATAGAAGCAACGGAAACGCGTGGCAATATTAAATTTCATCCTCGCGTTTCCGACATGACAAATTAACCGGTAATTTCGGCCAGATTCAGTTCT (double strand) [F1]” stands “binds more weakly”; under “TGACAAATGAGCGCGTTGAAGCTTGGGTAAAACAGATCAGCGAAGAACTGAATCTGGCCGAAATTACCGGTTAATTTGTCATGTCGGAAACGCGAGGATGAAATTTAATATTGCCACGCGTTTCCGTTGCTTCTATCCCTCTGGTTATACTCTGTTAAGCCACCCACAGATCCGCACTTTCATCCGTGCAAAATGAAAATAAACTGCTACAAATTTGTAACCTTATACTTTGCAGTCAT (double strand) [F12]”, “binds”.
